For three molecules, Kd results are on record in US20070053902 (published 2007).

Read-outs that look alike come from different tables or passages of the source.

By Kd is commonly meant the concentration at which binding is half-saturated. A higher Kd goes with weaker binding.

For experiment [1], the target named is T1, human integrin alphavbeta3 (human, UniProt P06756).
T1 chain 1: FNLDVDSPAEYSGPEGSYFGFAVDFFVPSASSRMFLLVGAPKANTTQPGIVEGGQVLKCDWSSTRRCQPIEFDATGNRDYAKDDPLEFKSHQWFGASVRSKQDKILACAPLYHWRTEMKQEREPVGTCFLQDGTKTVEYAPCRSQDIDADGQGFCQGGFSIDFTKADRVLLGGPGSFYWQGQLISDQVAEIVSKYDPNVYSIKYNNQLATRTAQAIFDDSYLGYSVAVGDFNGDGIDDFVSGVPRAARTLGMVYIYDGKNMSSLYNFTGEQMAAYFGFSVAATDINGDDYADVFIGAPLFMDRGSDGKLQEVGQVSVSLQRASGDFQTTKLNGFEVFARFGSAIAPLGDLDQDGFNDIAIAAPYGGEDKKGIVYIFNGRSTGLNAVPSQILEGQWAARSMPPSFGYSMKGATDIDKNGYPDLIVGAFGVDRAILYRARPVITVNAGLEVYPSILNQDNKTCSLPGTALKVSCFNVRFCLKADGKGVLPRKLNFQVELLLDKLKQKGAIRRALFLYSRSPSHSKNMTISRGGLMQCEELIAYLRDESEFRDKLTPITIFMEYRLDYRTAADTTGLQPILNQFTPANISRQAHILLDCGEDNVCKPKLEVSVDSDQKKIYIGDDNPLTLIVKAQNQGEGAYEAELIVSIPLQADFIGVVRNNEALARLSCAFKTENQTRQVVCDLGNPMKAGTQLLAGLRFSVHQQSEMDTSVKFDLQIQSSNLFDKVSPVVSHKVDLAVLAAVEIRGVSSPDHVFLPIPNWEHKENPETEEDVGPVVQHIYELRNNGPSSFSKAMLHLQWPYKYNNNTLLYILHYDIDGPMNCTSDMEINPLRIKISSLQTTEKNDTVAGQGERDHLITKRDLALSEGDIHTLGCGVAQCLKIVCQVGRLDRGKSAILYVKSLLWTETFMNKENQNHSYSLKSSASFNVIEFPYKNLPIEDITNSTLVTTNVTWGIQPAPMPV
T1 chain 2: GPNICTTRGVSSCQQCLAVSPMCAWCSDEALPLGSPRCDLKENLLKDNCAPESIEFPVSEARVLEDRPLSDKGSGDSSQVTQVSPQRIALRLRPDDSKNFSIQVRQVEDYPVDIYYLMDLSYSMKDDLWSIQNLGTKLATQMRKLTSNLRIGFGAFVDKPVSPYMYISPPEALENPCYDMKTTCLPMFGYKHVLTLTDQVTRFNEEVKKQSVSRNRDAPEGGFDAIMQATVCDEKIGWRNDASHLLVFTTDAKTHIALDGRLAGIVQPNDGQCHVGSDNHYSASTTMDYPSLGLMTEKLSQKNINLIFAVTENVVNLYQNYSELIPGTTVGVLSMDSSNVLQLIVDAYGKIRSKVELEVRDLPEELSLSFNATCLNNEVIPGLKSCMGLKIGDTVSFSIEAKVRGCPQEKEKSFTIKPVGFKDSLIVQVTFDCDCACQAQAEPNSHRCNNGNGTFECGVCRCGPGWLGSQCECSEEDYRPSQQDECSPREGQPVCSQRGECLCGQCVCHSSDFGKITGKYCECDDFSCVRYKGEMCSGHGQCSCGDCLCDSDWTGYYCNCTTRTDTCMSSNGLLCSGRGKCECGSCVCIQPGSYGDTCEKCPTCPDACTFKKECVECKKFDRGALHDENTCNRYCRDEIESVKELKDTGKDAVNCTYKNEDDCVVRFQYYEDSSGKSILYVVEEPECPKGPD
Nature of the experiment: SPR.

For experiment [2], the target named is T1, human integrin alphavbeta3. Nature of the experiment: SPR.

B1: HZD12-IgG4 (antibody, V domains shown)
VH: QVQLVQSGAEVKKPGASVKVSCKASGYAFTSYNMYWVRQAPGQGLEWIGYIDPYNGDTFYNQKFKGKATLTVDKSTSTAYMELSSLRSEDTAVYYCARQNYGSFAYWGQGTLVTVSS
VL: DIVLTQSPGTLSLSPGERATLSCRASQSISNHLHWYQQKPGQAPRLLIKYASQSISGIPSRFSGSGSGTDFTLTISRLEPEDFAVYYCQQSNSWPFTFGQGTKVEIK
Regarding B1, in experiment [1], binding was put at a Kd of 1.1 nM.

B2: HZD12-IgG1 (antibody, V domains shown)
VH: B1 VH
VL: B1 VL
Molecule B2 showed a Kd in experiment [1] of 1 nM.

B3: murine D12 (antibody, V domains shown)
VH: EIQLQQSGPEVVKPGASVKVSCKASGYAFTSYNMYWVKQSHGKSLEWIGYIDPYNGDTFYNQKFKGKATLTVDKSSSTAYMHLNSLTSEDSAVFYCARQNYGSFAYWGQGTLVTVSA
VL: DIVLTQSPATLSVTPGDSVSLSCRASQSISNHLHWYQQRSHESPRLLIKYASQSISGIPSRFRGSGSGTDFTLNINILETEDFGMYFCQQSNSWPFTFGSGTNLEIKR
Take B3: the Kd came out at 0.53 nM in experiment [2] and 1.3 nM in experiment [1].
